Assay results reported in paper doi:10.1101/2020.12.03.409318 (bioRxiv, 2020).

Target: RBD-mFc (Sino Biologicals) (SARS-CoV-2, wild type (Wuhan-Hu-1 …, UniProt P0DTC2))
Assay: BLI

B1: STE90-C11 Fab (Fab, V domains shown)
VH: QVQLVESGGGLVQPGGSLRLSCAASGLTVSSNYMSWVRQAPGKGLEWVSVIYSGGSTYYADSVKGRFTISRDDSKNTLYLQMNSLRAEDTAVYYCARDVADAFDIWGQGTMVTVSS
VL: DIVMTQSPSFLSASVGDRVTITCRASQGISSYLAWYQQKPGKAPKLLIYAASTLQSGVPSRFSGSGSGTEFTLTISSLQPEDFATYYCQQLNSYPPFTFGPGTKVDIK
Kd: 8.1 nM
